According to patent US20200087297A1 (Genentech, published 2020):
Where “and” joins values, the source holds several entries; their conditions need not be identical. Identical values can stand only once. Like-named read-outs stand apart in the source and are kept apart here.

T1: NaPi2b (SLC34A2, type II sodium-dependent phosphate transporter 3b) (human, UniProt O95436 1-690)
T1 sequence (looked up): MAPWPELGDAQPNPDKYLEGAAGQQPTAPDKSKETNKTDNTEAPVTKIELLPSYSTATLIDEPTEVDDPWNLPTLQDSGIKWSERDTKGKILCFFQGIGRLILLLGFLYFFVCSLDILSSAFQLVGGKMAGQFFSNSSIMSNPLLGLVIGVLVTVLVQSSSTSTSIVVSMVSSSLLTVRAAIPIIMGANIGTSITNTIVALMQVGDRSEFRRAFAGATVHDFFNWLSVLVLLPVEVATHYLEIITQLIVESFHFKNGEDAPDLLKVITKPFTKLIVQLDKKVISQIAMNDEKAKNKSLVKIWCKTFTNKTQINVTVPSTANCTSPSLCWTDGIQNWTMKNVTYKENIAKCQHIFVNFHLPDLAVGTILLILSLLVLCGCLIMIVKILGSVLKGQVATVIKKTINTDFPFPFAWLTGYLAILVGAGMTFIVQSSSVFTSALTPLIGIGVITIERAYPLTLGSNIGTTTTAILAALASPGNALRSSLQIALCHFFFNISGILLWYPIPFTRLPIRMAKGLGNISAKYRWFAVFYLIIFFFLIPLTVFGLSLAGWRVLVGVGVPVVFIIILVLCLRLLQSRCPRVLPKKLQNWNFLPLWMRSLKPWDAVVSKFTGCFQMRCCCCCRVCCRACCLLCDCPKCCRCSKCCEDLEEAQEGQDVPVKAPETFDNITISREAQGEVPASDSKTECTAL


What was measured:
[1] = target: T1, NaPi2b (SLC34A2, type II …); assay: cell-based or functional assay
[2] = target: T1, NaPi2b (SLC34A2, type II …); assay: cell-based or functional assay; remark: listed apart in the source

Row | Binder | IGROV-1 IC50 (EdU Prolif assay) [1] | OVCAR-3x2.1 IC50 (EdU Prolif assay) [1] | IGROV-1 IC50 (EdU Prolif assay) [2] | OVCAR-3x2.1 IC50 (EdU Prolif assay) [2]
1 | Anti-Napi2b 10H1.11.4B LC K149C MC-Sq-Cit-PAB-Tubulysin M (antibody, DAR 1, V domains shown) VH: EVQLVESGGGLVQPGGSLRLSCAASGFSFSDFAMSWVRQAPGKGLEWVATIGRVAFHTYYPDSMKGRFTISRDNSKNTLYLQMNSLRAEDTAVYYCARHRGFDVGHFDFWGQGTLVTVSS VL: DIQMTQSPSSLSASVGDRVTITCRSSETLVHSSGNTYLEWYQQKPGKAPKLLIYRVSNRFSGVPSRFSGSGSGTDFTLTISSLQPEDFATYYCFQGSFNPLTFGQGTKVEIKR | 2.07 nM and 310 ng/mL | 151 ng/mL and 1 nM | – | –
2 | Anti-Napi2b 10H1.11.4B LC K149C MC-Sq-Cit-PAB Dolastatin 10 (antibody, DAR 1, V domains shown) VH: EVQLVESGGGLVQPGGSLRLSCAASGFSFSDFAMSWVRQAPGKGLEWVATIGRVAFHTYYPDSMKGRFTISRDNSKNTLYLQMNSLRAEDTAVYYCARHRGFDVGHFDFWGQGTLVTVSS VL: DIQMTQSPSSLSASVGDRVTITCRSSETLVHSSGNTYLEWYQQKPGKAPKLLIYRVSNRFSGVPSRFSGSGSGTDFTLTISSLQPEDFATYYCFQGSFNPLTFGQGTKVEIKR | – | – | 3.19 nM and 478 ng/mL | 1.52 nM and 228 ng/mL
